The values below are quoted from earlier work in publication PMC7149769.

One series addresses Factor X (Homo sapiens) (UniProt P00742).
In another series the target is Factor Xa (Homo sapiens) (UniProt P00742).

For Mac-1 (from UniProt P11215), in the series with Factor X (Homo sapiens), the dissociation constant Kd – broadly, the concentration at which binding is half-saturated – was 30 nM.

On to Factor Va (from UniProt P12259), for which, in the series with Factor Xa (Homo sapiens), the equilibrium dissociation constant (Kd) was 1 nM.
